Reference: article PMC11574045, “A cofactor-induced repressive type of transcription factor condensation can be induced by synthetic peptides to suppress tumorigenesis” (The EMBO Journal, 2024)

B1: RBBP8 (protein, UniProt Q99708 1-897, looked up)
DNA endonuclease RBBP8: MNISGSSCGSPNSADTSSDFKDLWTKLKECHDREVQGLQVKVTKLKQERILDAQRLEEFFTKNQQLREQQKVLHETIKVLEDRLRAGLCDRCAVTEEHMRKKQQEFENIRQQNLKLITELMNERNTLQEENKKLSEQLQQKIENDQQHQAAELECEEDVIPDSPITAFSFSGVNRLRRKENPHVRYIEQTHTKLEHSVCANEMRKVSKSSTHPQHNPNENEILVADTYDQSQSPMAKAHGTSSYTPDKSSFNLATVVAETLGLGVQEESETQGPMSPLGDELYHCLEGNHKKQPFEESTRNTEDSLRFSDSTSKTPPQEELPTRVSSPVFGATSSIKSGLDLNTSLSPSLLQPGKKKHLKTLPFSNTCISRLEKTRSKSEDSALFTHHSLGSEVNKIIIQSSNKQILINKNISESLGEQNRTEYGKDSNTDKHLEPLKSLGGRTSKRKKTEEESEHEVSCPQASFDKENAFPFPMDNQFSMNGDCVMDKPLDLSDRFSAIQRQEKSQGSETSKNKFRQVTLYEALKTIPKGFSSSRKASDGNCTLPKDSPGEPCSQECIILQPLNKCSPDNKPSLQIKEENAVFKIPLRPRESLETENVLDDIKSAGSHEPIKIQTRSDHGGCELASVLQLNPCRTGKIKSLQNNQDVSFENIQWSIDPGADLSQYKMDVTVIDTKDGSQSKLGGETVDMDCTLVSETVLLKMKKQEQKGEKSSNEERKMNDSLEDMFDRTTHEEYESCLADSFSQAADEEEELSTATKKLHTHGDKQDKVKQKAFVEPYFKGDERETSLQNFPHIEVVRKKEERRKLLGHTCKECEIYYADMPAEEREKKLASCSRHRFRYIPPNTPENFWEVGFPSTQTCMERGYIKEDLDPCPRPKRRQPYNAIFSPKGKEQKT
B2: RBM14 (protein, UniProt Q96PK6 1-669, looked up)
RNA-binding protein 14: MKIFVGNVDGADTTPEELAALFAPYGTVMSCAVMKQFAFVHMRENAGALRAIEALHGHELRPGRALVVEMSRPRPLNTWKIFVGNVSAACTSQELRSLFERRGRVIECDVVKDYAFVHMEKEADAKAAIAQLNGKEVKGKRINVELSTKGQKKGPGLAVQSGDKTKKPGAGDTAFPGTGGFSATFDYQQAFGNSTGGFDGQARQPTPPFFGRDRSPLRRSPPRASYVAPLTAQPATYRAQPSVSLGAAYRAQPSASLGVGYRTQPMTAQAASYRAQPSVSLGAPYRGQLASPSSQSAAASSLGPYGGAQPSASALSSYGGQAAAASSLNSYGAQGSSLASYGNQPSSYGAQAASSYGVRAAASSYNTQGAASSLGSYGAQAASYGAQSAASSLAYGAQAASYNAQPSASYNAQSAPYAAQQAASYSSQPAAYVAQPATAAAYASQPAAYAAQATTPMAGSYGAQPVVQTQLNSYGAQASMGLSGSYGAQSAAAATGSYGAAAAYGAQPSATLAAPYRTQSSASLAASYAAQQHPQAAASYRGQPGNAYDGAGQPSAAYLSMSQGAVANANSTPPPYERTRLSPPRASYDDPYKKAVAMSKRYGSDRRLAELSDYRRLSESQLSFRRSPTKSSLDYRRLPDAHSDYARYSGSYNDYLRAAQMHSGYQRRM
B3: PRKRA (protein, UniProt O75569 1-313, looked up)
Interferon-inducible …: MSQSRHRAEAPPLEREDSGTFSLGKMITAKPGKTPIQVLHEYGMKTKNIPVYECERSDVQIHVPTFTFRVTVGDITCTGEGTSKKLAKHRAAEAAINILKANASICFAVPDPLMPDPSKQPKNQLNPIGSLQELAIHHGWRLPEYTLSQEGGPAHKREYTTICRLESFMETGKGASKKQAKRNAAEKFLAKFSNISPENHISLTNVVGHSLGCTWHSLRNSPGEKINLLKRSLLSIPNTDYIQLLSEIAKEQGFNITYLDIDELSANGQYQCLAELSTSPITVCHGSGISCGNAQSDAAHNALQYLKIIAERK
B4: PRDM8 (protein, UniProt Q9NQV8 1-689, looked up)
PR domain zinc finger protein …: MEDTGIQRGIWDGDAKAVQQCLTDIFTSVYTTCDIPENAIFGPCVLSHTSLYDSIAFIALKSTDKRTVPYIFRVDTSAANGSSEGLMWLRLVQSARDKEEQNLEAYIKNGQLFYRSLRRIAKDEELLVWYGKELTELLLLCPSRSHNKMNGSSPYTCLECSQRFQFEFPYVAHLRFRCPKRLHSADISPQDEQGGGVGTKDHGGGGGGGKDQQQQQQEAPLGPGPKFCKAGPLHHYPSPSPESSNPSAAAGGSSAKPSTDFHNLARELENSRGGSSCSPAQSLSSGSGSGGGGGHQEAELSPDGIATGGGKGKRKFPEEAAEGGGGAGLVGGRGRFVERPLPASKEDLVCTPQQYRASGSYFGLEENGRLFAPPSPETGEAKRSAFVEVKKAARAASLQEEGTADGAGVASEDQDAGGGGGSSTPAAASPVGAEKLLAPRPGGPLPSRLEGGSPARGSAFTSVPQLGSAGSTSGGGGTGAGAAGGAGGGQGAASDERKSAFSQPARSFSQLSPLVLGQKLGALEPCHPADGVGPTRLYPAAADPLAVKLQGAADLNGGCGSLPSGGGGLPKQSPFLYATAFWPKSSAAAAAAAAAAAAGPLQLQLPSALTLLPPSFTSLCLPAQNWCAKCNASFRMTSDLVYHMRSHHKKEYAMEPLVKRRREEKLKCPICNESFRERHHLSRHMTSHN
B5: BARHL2 (protein, UniProt Q9NY43 1-387, looked up)
BarH-like 2 homeobox protein: MTMEGASGSSFGIDTILSSASSGSPGMMNGDFRPLGEARTADFRSQATPSPCSEIDTVGTAPSSPISVTMEPPEPHLVADATQHHHHLHHSQQPPPPAAAPTQSLQPLPQQQQPLPPQQPPPPPPQQLGSAASAPRTSTSSFLIKDILGDSKPLAACAPYSTSVSSPHHTPKQESNAVHESFRPKLEQEDSKTKLDKREDSQSDIKCHGTKEEGDREITSSRESPPVRAKKPRKARTAFSDHQLNQLERSFERQKYLSVQDRMDLAAALNLTDTQVKTWYQNRRTKWKRQTAVGLELLAEAGNYSALQRMFPSPYFYHPSLLGSMDSTTAAAAAAAMYSSMYRTPPAPHPQLQRPLVPRVLIHGLGPGGQPALNPLSSPIPGTPHPR
B6: PROX1 (protein, UniProt P48437 1-737, looked up)
Prospero homeobox protein 1: MPDHDSTALLSRQTKRRRVDIGVKRTVGTASAFFAKARATFFSAMNPQGSEQDVEYSVVQHADGEKSNVLRKLLKRANSYEDAMMPFPGATIISQLLKNNMNKNGGTEPSFQASGLSSTGSEVHQEDICSNSSRDSPPECLSPFGRPTMSQFDVDRLCDEHLRAKRARVENIIRGMSHSPSVALRGNENEREMAPQSVSPRESYRENKRKQKLPQQQQQSFQQLVSARKEQKREERRQLKQQLEDMQKQLRQLQEKFYQVYDSTDSENDEDGDLSEDSMRSEILDARAQDSVGRSDNEMCELDPGQFIDRARALIREQEMAENKPKREGSNKERDHGPNSLQPEGKHLAETLKQELNTAMSQVVDTVVKVFSAKPSRQVPQVFPPLQIPQARFAVNGENHNFHTANQRLQCFGDVIIPNPLDTFGSVQMPSSTDQTEALPLVVRKNSSEQSASGPATGGHHQPLHQSPLSATAGFTTPSFRHPFPLPLMAYPFQSPLGAPSGSFSGKDRASPESLDLTRDTTSLRTKMSSHHLSHHPCSPAHPPSTAEGLSLSLIKSECGDLQDMSDISPYSGSAMQEGLSPNHLKKAKLMFFYTRYPSSNMLKTYFSDVKFNRCITSQLIKWFSNFREFYYIQMEKYARQAINDGVTSTEELSITRDCELYRALNMHYNKANDFEVPERFLEVAQITLREFFNAIIAGKDVDPSWKKAIYKVICKLDSEVPEIFKSPNCLQELLHE
B7: RARB (protein, UniProt P10826 1-455, looked up)
Retinoic acid receptor beta: MTTSGHACPVPAVNGHMTHYPATPYPLLFPPVIGGLSLPPLHGLHGHPPPSGCSTPSPATIETQSTSSEELVPSPPSPLPPPRVYKPCFVCQDKSSGYHYGVSACEGCKGFFRRSIQKNMIYTCHRDKNCVINKVTRNRCQYCRLQKCFEVGMSKESVRNDRNKKKKETSKQECTESYEMTAELDDLTEKIRKAHQETFPSLCQLGKYTTNSSADHRVRLDLGLWDKFSELATKCIIKIVEFAKRLPGFTGLTIADQITLLKAACLDILILRICTRYTPEQDTMTFSDGLTLNRTQMHNAGFGPLTDLVFTFANQLLPLEMDDTETGLLSAICLICGDRQDLEEPTKVDKLQEPLLEALKIYIRKRRPSKPHMFPKILMKITDLRSISAKGAERVITLKMEIPGSMPPLIQEMLENSEGHEPLTPSSSGNTAEHSPSISPSSVENSGVSQSPLVQ
B8: REXO4 (protein, UniProt Q9GZR2 1-422, looked up)
RNA exonuclease 4: MGKAKVPASKRAPSSPVAKPGPVKTLTRKKNKKKKRFWKSKAREVSKKPASGPGAVVRPPKAPEDFSQNWKALQEWLLKQKSQAPEKPLVISQMGSKKKPKIIQQNKKETSPQVKGEEMPAGKDQEASRGSVPSGSKMDRRAPVPRTKASGTEHNKKGTKERTNGDIVPERGDIEHKKRKAKEAAPAPPTEEDIWFDDVDPADIEAAIGPEAAKIARKQLGQSEGSVSLSLVKEQAFGGLTRALALDCEMVGVGPKGEESMAARVSIVNQYGKCVYDKYVKPTEPVTDYRTAVSGIRPENLKQGEELEVVQKEVAEMLKGRILVGHALHNDLKVLFLDHPKKKIRDTQKYKPFKSQVKSGRPSLRLLSEKILGLQVQQAEHCSIQDAQAAMRLYVMVKKEWESMARDRRPLLTAPDHCSDDA
B9: PRMT2 (protein, UniProt P55345 1-433, looked up)
Protein arginine …: MATSGDCPRSESQGEEPAECSEAGLLQEGVQPEEFVAIADYAATDETQLSFLRGEKILILRQTTADWWWGERAGCCGYIPANHVGKHVDEYDPEDTWQDEEYFGSYGTLKLHLEMLADQPRTTKYHSVILQNKESLTDKVILDVGCGTGIISLFCAHYARPRAVYAVEASEMAQHTGQLVLQNGFADIITVYQQKVEDVVLPEKVDVLVSEWMGTCLLFEFMIESILYARDAWLKEDGVIWPTMAALHLVPCSADKDYRSKVLFWDNAYEFNLSALKSLAVKEFFSKPKYNHILKPEDCLSEPCTILQLDMRTVQISDLETLRGELRFDIRKAGTLHGFTAWFSVHFQSLQEGQPPQVLSTGPFHPTTHWKQTLFMMDDPVPVHTGDVVTGSVVLQRNPVWRRHMSVALSWAVTSRQDPTSQKVGEKVFPIWR

The molecules below were run on HEK293FT cells transfected with TF library (assay: Screening of TF condensates based on fluorescent puncta). Conditions: Figure 1B numerical data; TF library screen, one value per transcriptional factor.
Format: cell-based
In short: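 Each TF construct was introduced into HEK293FT cells using PEI at 4.8 μg/ml; glucose deprivation versus normal medium lasted 12 h. Automated confocal-style imaging of tagged TF staining, 50 fields per well, gave the puncta data.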

Molecule | Z score of condensed fraction
B1 | 0.03488
B2 | 0.5955
B3 | 0.8928
B4 | -0.8362
B5 | 1.061
B6 | 0.7937
B7 | -0.7014
B8 | -0.3654
B9 | 0.936
